Where no end group is shown, it is not given here. [ ]: non-standard residue; d: D form. Cha = N[C@@H](CC1CCCCC1)C(=O)O
T1: wild-type human PTHR (human, UniProt Q03431 27-593)
T1 construct: whole, on cells; also called PTHR-WT; intact PTHR
T1 sequence (looked up): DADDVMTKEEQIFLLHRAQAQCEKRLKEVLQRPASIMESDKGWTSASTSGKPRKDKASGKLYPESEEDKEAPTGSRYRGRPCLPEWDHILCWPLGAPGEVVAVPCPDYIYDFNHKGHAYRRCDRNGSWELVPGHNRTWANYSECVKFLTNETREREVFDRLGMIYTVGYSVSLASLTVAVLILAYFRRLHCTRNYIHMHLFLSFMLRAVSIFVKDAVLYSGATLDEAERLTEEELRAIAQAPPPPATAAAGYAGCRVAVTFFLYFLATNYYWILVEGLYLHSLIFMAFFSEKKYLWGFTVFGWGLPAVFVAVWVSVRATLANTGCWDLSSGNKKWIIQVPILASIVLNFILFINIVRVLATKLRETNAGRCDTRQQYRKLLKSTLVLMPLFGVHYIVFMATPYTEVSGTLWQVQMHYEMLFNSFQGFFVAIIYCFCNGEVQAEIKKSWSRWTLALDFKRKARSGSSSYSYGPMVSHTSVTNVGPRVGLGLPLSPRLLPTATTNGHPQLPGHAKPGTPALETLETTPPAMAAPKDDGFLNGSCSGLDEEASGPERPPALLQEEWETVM

B1: [Ala^1,Arg^19]hPTH(1-31)NH2 Lys^27→Cha (peptide)
peptide: AVSEIQLMHNLGKHLNSMRRVEWLRK[Cha]LQDV-NH2
modifications: N-terminus assumed
SMILES: CC[C@H](C)[C@H](NC(=O)[C@H](CCC(=O)O)NC(=O)[C@H](CO)NC(=O)[C@@H](NC(=O)[C@H](C)N)C(C)C)C(=O)N[C@@H](CCC(N)=O)C(=O)N[C@@H](CC(C)C)C(=O)N[C@@H](CCSC)C(=O)N[C@@H](Cc1c[nH]cn1)C(=O)N[C@@H](CC(N)=O)C(=O)N[C@@H](CC(C)C)C(=O)NCC(=O)N[C@@H](CCCCN)C(=O)N[C@@H](Cc1c[nH]cn1)C(=O)N[C@@H](CC(C)C)C(=O)N[C@@H](CC(N)=O)C(=O)N[C@@H](CO)C(=O)N[C@@H](CCSC)C(=O)N[C@@H](CCCNC(=N)N)C(=O)N[C@@H](CCCNC(=N)N)C(=O)N[C@H](C(=O)N[C@@H](CCC(=O)O)C(=O)N[C@@H](Cc1c[nH]c2ccccc12)C(=O)N[C@@H](CC(C)C)C(=O)N[C@@H](CCCNC(=N)N)C(=O)N[C@@H](CCCCN)C(=O)N[C@@H](CC1CCCCC1)C(=O)N[C@@H](CC(C)C)C(=O)N[C@@H](CCC(N)=O)C(=O)N[C@@H](CC(=O)O)C(=O)N[C@H](C(N)=O)C(C)C)C(C)C
notes: also called Cha^27 analog
B2: [Ala^1,Arg^19]hPTH(1-31)NH2 Val^21→Cha (peptide)
peptide: AVSEIQLMHNLGKHLNSMRR[Cha]EWLRKKLQDV-NH2
modifications: N-terminus assumed
SMILES: CC[C@H](C)[C@H](NC(=O)[C@H](CCC(=O)O)NC(=O)[C@H](CO)NC(=O)[C@@H](NC(=O)[C@H](C)N)C(C)C)C(=O)N[C@@H](CCC(N)=O)C(=O)N[C@@H](CC(C)C)C(=O)N[C@@H](CCSC)C(=O)N[C@@H](Cc1c[nH]cn1)C(=O)N[C@@H](CC(N)=O)C(=O)N[C@@H](CC(C)C)C(=O)NCC(=O)N[C@@H](CCCCN)C(=O)N[C@@H](Cc1c[nH]cn1)C(=O)N[C@@H](CC(C)C)C(=O)N[C@@H](CC(N)=O)C(=O)N[C@@H](CO)C(=O)N[C@@H](CCSC)C(=O)N[C@@H](CCCNC(=N)N)C(=O)N[C@@H](CCCNC(=N)N)C(=O)N[C@@H](CC1CCCCC1)C(=O)N[C@@H](CCC(=O)O)C(=O)N[C@@H](Cc1c[nH]c2ccccc12)C(=O)N[C@@H](CC(C)C)C(=O)N[C@@H](CCCNC(=N)N)C(=O)N[C@@H](CCCCN)C(=O)N[C@@H](CCCCN)C(=O)N[C@@H](CC(C)C)C(=O)N[C@@H](CCC(N)=O)C(=O)N[C@@H](CC(=O)O)C(=O)N[C@H](C(N)=O)C(C)C
B3: [Ala^1,Arg^19]hPTH(1-31)NH2 Glu^22→Cha (peptide)
peptide: AVSEIQLMHNLGKHLNSMRRV[Cha]WLRKKLQDV-NH2
modifications: N-terminus assumed
SMILES: CC[C@H](C)[C@H](NC(=O)[C@H](CCC(=O)O)NC(=O)[C@H](CO)NC(=O)[C@@H](NC(=O)[C@H](C)N)C(C)C)C(=O)N[C@@H](CCC(N)=O)C(=O)N[C@@H](CC(C)C)C(=O)N[C@@H](CCSC)C(=O)N[C@@H](Cc1c[nH]cn1)C(=O)N[C@@H](CC(N)=O)C(=O)N[C@@H](CC(C)C)C(=O)NCC(=O)N[C@@H](CCCCN)C(=O)N[C@@H](Cc1c[nH]cn1)C(=O)N[C@@H](CC(C)C)C(=O)N[C@@H](CC(N)=O)C(=O)N[C@@H](CO)C(=O)N[C@@H](CCSC)C(=O)N[C@@H](CCCNC(=N)N)C(=O)N[C@@H](CCCNC(=N)N)C(=O)N[C@H](C(=O)N[C@@H](CC1CCCCC1)C(=O)N[C@@H](Cc1c[nH]c2ccccc12)C(=O)N[C@@H](CC(C)C)C(=O)N[C@@H](CCCNC(=N)N)C(=O)N[C@@H](CCCCN)C(=O)N[C@@H](CCCCN)C(=O)N[C@@H](CC(C)C)C(=O)N[C@@H](CCC(N)=O)C(=O)N[C@@H](CC(=O)O)C(=O)N[C@H](C(N)=O)C(C)C)C(C)C
B4: [Ala^1,Arg^19]hPTH(1-31)NH2 Leu^28→Cha (peptide)
peptide: AVSEIQLMHNLGKHLNSMRRVEWLRKK[Cha]QDV-NH2
modifications: N-terminus assumed
SMILES: CC[C@H](C)[C@H](NC(=O)[C@H](CCC(=O)O)NC(=O)[C@H](CO)NC(=O)[C@@H](NC(=O)[C@H](C)N)C(C)C)C(=O)N[C@@H](CCC(N)=O)C(=O)N[C@@H](CC(C)C)C(=O)N[C@@H](CCSC)C(=O)N[C@@H](Cc1c[nH]cn1)C(=O)N[C@@H](CC(N)=O)C(=O)N[C@@H](CC(C)C)C(=O)NCC(=O)N[C@@H](CCCCN)C(=O)N[C@@H](Cc1c[nH]cn1)C(=O)N[C@@H](CC(C)C)C(=O)N[C@@H](CC(N)=O)C(=O)N[C@@H](CO)C(=O)N[C@@H](CCSC)C(=O)N[C@@H](CCCNC(=N)N)C(=O)N[C@@H](CCCNC(=N)N)C(=O)N[C@H](C(=O)N[C@@H](CCC(=O)O)C(=O)N[C@@H](Cc1c[nH]c2ccccc12)C(=O)N[C@@H](CC(C)C)C(=O)N[C@@H](CCCNC(=N)N)C(=O)N[C@@H](CCCCN)C(=O)N[C@@H](CCCCN)C(=O)N[C@@H](CC1CCCCC1)C(=O)N[C@@H](CCC(N)=O)C(=O)N[C@@H](CC(=O)O)C(=O)N[C@H](C(N)=O)C(C)C)C(C)C
B5: [Ala^1,Arg^19]hPTH(1-31)NH2 Gln^29→Cha (peptide)
peptide: AVSEIQLMHNLGKHLNSMRRVEWLRKKL[Cha]DV-NH2
modifications: N-terminus assumed
SMILES: CC[C@H](C)[C@H](NC(=O)[C@H](CCC(=O)O)NC(=O)[C@H](CO)NC(=O)[C@@H](NC(=O)[C@H](C)N)C(C)C)C(=O)N[C@@H](CCC(N)=O)C(=O)N[C@@H](CC(C)C)C(=O)N[C@@H](CCSC)C(=O)N[C@@H](Cc1c[nH]cn1)C(=O)N[C@@H](CC(N)=O)C(=O)N[C@@H](CC(C)C)C(=O)NCC(=O)N[C@@H](CCCCN)C(=O)N[C@@H](Cc1c[nH]cn1)C(=O)N[C@@H](CC(C)C)C(=O)N[C@@H](CC(N)=O)C(=O)N[C@@H](CO)C(=O)N[C@@H](CCSC)C(=O)N[C@@H](CCCNC(=N)N)C(=O)N[C@@H](CCCNC(=N)N)C(=O)N[C@H](C(=O)N[C@@H](CCC(=O)O)C(=O)N[C@@H](Cc1c[nH]c2ccccc12)C(=O)N[C@@H](CC(C)C)C(=O)N[C@@H](CCCNC(=N)N)C(=O)N[C@@H](CCCCN)C(=O)N[C@@H](CCCCN)C(=O)N[C@@H](CC(C)C)C(=O)N[C@@H](CC1CCCCC1)C(=O)N[C@@H](CC(=O)O)C(=O)N[C@H](C(N)=O)C(C)C)C(C)C

Target: T1, wild-type human PTHR
Assay: competition binding, HKRK-B7 cells, 125I-PTH(1-34) tracer

| fold change in binding affinity vs [Ala^1,Arg^19]PTH(1-31)NH2 | Binder |
| --- | --- |
| ≤ 6 fold | B1 |
| ≤ 6 fold | B2 |
| ≤ 6 fold | B3 |
| ≤ 6 fold | B4 |
| ≤ 6 fold | B5 |

Target: T1, wild-type human PTHR
Assay: as above
Remark: another data set of the same source
Protocol: Receptor binding—Binding to the wild-type human PTHR in intact HKRK-B7 cells and ROS 17/2.8 cells was assessed using ¹²⁵I-PTH(1-34) as a tracer radioligand, as described (Shimizu, M., (2001) Endocrinology 142:3068-3074). In brief, the cells in 24-well plates (about 500,000 cells per well) were incubated in binding buffer containing radioligand (about 100,000 cpm per well) with or without unlabeled peptide ligand (3×10⁻⁹ to 1×10⁻⁵ M) for four hours at 15° C. The binding mixture was then removed by aspiration, the cells were rinsed three times with binding buffer, lysed in 1 M NaOH, and the entire lysate was counted for gamma-irradiation in a gamma counter. Binding to PTHR-delNt in COS-7 cell membranes was assessed in 96-well, vacuum filtration plates (Multiscreen-Durapore HV, […], Millipore Corp., Millford, Mass.) using ¹²⁵I-[Aib^{1,3},M]PTH(1-15)NH₂ as a tracer radioligand, as described (Dean, T., (2006) Mol Endocrinol 20:931-942). In brief, cell membranes (20 μg/well) were incubated in membrane binding buffer containing radioligand (30,000 cpm/well) with or without unlabeled peptide ligand (3×10⁻⁹ to 1×10⁻⁵ M) for 90 minutes at 21° C. The plates were then subject to rapid vacuum filtration, the filters were washed once with buffer, detached from the plate and counted for gamma-irradiation in a gamma counter. Non-specific binding was defined as the binding observed in the presence of 1×10⁻⁶ M PTH(1-31)NH₂ for HKRK-B7 and ROS 17/2.8 cells, and 1×10⁻⁶ M [Aib^{1,3},M]PTH(1-15)NH₂ for PTHR-delNt. Specifically bound radioactivity was calculated as a percentage of the radioactivity specifically bound in the absence of competing ligand.
Cyclohexylalanine and glutamate substitutions were introduced into [Ala¹,Arg¹⁹]hPTH(1-31)NH₂. The helical residue values were calculated from [θ]₂₂₂, the mean-residue elipticities observed in the CD spectra at 222 nm. Competition binding studies were performed in intact HKRK-B7 cells stably transfected with the hPTHR using ¹²⁵I-[Nle^{8,21},Tyr³⁴]rPTH(1-34)NH ₂ tracer radioligand, and in membranes prepared from COS-7 cells transiently transfected with hPTHR-delNt and a negative-dominant Gαs using ¹²⁵I-[Aib^{1,3},Nle⁸,Gln¹⁰,Har¹¹,Ala¹²,Trp¹⁴,Tyr¹⁵]rPTH(1-15)NH₂ tracer radioligand. Binding values (nM) are means (+/−s.e.m.) of data from the number of experiments indicated (n).

| IC50 | Binder |
| --- | --- |
| 91 nM | B1 |
| 74 nM | B2 |
| 75 nM | B3 |
| 65 nM | B4 |
| 61 nM | B5 |

Target: PTHR-delNt (human) (UniProt Q03431)
Assay: competition binding, COS-7 membranes, 125I-[Aib1,3,M]PTH(1-15) tracer

| IC50 | fold change in binding affinity vs [Ala^1,Arg^19]PTH(1-31)NH2 | Binder |
| --- | --- | --- |
| 629 nM | < 3 fold | B1 |
| 564 nM | < 3 fold | B2 |
| 126 nM | < 3 fold | B3 |
| 226 nM | < 3 fold | B4 |
| 319 nM | < 3 fold | B5 |
